Test [1] addresses surface Spycatcher fused to the hinge of hCD52 (human). Briefly: flow cytometry on cells; titration of purified Spytag-mClover3 on CHO-K1 cells transduced with surface Spycatcher; covalent coupling read by mClover3 fluorescence.
The target in test [2] is CD2 (human) (UniProt P06729).

The record followed here is PMC10897201.

Chain of UniProt P06729 (P06729 25-351): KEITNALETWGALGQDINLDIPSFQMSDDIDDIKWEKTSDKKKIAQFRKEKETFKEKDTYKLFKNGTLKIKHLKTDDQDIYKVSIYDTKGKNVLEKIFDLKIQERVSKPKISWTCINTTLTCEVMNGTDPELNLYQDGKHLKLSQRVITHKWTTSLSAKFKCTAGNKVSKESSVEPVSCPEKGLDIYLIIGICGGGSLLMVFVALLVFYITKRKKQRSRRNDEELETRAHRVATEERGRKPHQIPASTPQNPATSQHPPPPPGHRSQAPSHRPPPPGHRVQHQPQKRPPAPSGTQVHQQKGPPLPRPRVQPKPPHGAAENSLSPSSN

The substance purified mClover3 fused to Spytag came in with a concentration at saturation in test [1] of 1 µM.
In test [2], “full extracellular domain of CD58 fused to a C-terminal Spytag and Histag (from UniProt P19256 29-215) (ligand)” came in with a fold improvement of antigen sensitivity, 4-1BB, 1G4 TCR T cells, with the CD2 ligand against pMHC alone of 230 fold; a fold improvement of antigen sensitivity, 4-1BB, D52N CAR T cells, with the CD2 ligand against pMHC alone of 11 fold; a fold improvement of antigen sensitivity, IL-2, 1G4 TCR T cells, with the CD2 ligand against pMHC alone of 46 fold; a fold improvement of antigen sensitivity, IL-2, D52N CAR T cells, with the CD2 ligand against pMHC alone of 3.9 fold.
